The data set in a line: yeast display, Sf9 membrane polyspecificity reagent, FACS + sequencing; frameworks hold sequencing errors. The gist of the method: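 Sorting gates, low and high (top ~1%), were placed on anti-HA fluorescence to track expression and on streptavidin fluorescence to track reagent binding. A clone's polyreactivity label is taken from the gate it came out of. The reagent was 10% biotinylated, detergent-solubilized Sf9 membrane, applied for 1 hour at 4 °C to galactose-induced yeast display cells.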
On to “QVQLVESGGGLVQAGGSLRLSCAASGNNLSVYTMGWYRQAPGKERELVATITYSGDRTYADSVKGRFTISRDNAKNTVYLQMNSLKPEDTAVYYCAKRNFGSYIRRGHWGQGTQVTVSS”, for which the “polyreactivity (PSR sort gate)” value was “low polyreactivity”. As to “QVQLVESGGGLVQAGGSLRLSCAASGNSFREYTMGWCRQAPGKERELVAGISGSGGRTYYADSVKGRFTISRDNAKNTVFLQMNSLKPEDTAVYYCNDRWYYGIGYNYWGQGTQVTVSS”, the “polyreactivity (PSR sort gate)” value is on record as “high polyreactivity”. For “QVQLVESGGGLVQAGGSLRLSCAASGNTFAGNAMGWYRHAPRKERELVAAISRSGVTTRYGDSVKGRFTISRDNAKNTVYLQMNSLKPEDTAVYYCNAVPRLRQTREYWGQGTQVTVSS”, the “polyreactivity (PSR sort gate)” value is reported as “high polyreactivity”. In the case of “QVQLVESGGGLVQAGGSLRLSCAASGNTFAGNAMGWYRQAPGKERELVAAISRSGVTTRYADSVKGRFTISRDNAKNTVYLQMNSLKPEDTAVYYCNADPRLRQTRDYWGQGTQVTVSS”, the “polyreactivity (PSR sort gate)” value is listed as “high polyreactivity”. The result for “QVQLVESGGGLVQAGGSLRLSCAASGNTFASNAMGWYRQAPGKERELVATISTSGTTYYADSVKGRFTISRDNAKNTVYLQMNSLKPEDTAVYYCARTFKSRRGSRGYYWGQGTQVTVSS” reads “high polyreactivity”; that for “QVQLVESGGGLVQAGGSLRLSCAASGNTFATYAMGWYRQAPGKERELVAGITVDGASTNYADSVKGRFTISRDNAKNTVYLQMNSLKPEDTAVYYCNADYTTQVYDSTWPGDFGYWGQGTQVTVSS”, “high polyreactivity”; that for “QVQLVESGGGLVQAGGSLRLSCAASGNTFAVNAMGWYRQAPGKERELVAAISKRGGRTYYADSVKGRFTISRDNAKNTVYLQMNSLKPEDTAVYYCNTGYIFSSFYSSKYGYWGQGTQVTVSS”, “high polyreactivity”. The entry for “QVQLVESGGGLVQAGGSLRLSCAASGNTFDGYDMGWYRQAPGKERELVAAITNTGASTYYADSVKGRFTISRDNAKNTVYLQMNSLKPEDTAVYYCIAQDSYPEDRHGMSYWGQGTQVTVSS” is “low polyreactivity”; for “QVQLVESGGGLVQAGGSLRLSCAASGNTFDIYAMGWYRQAPGKERELVAAISRRGGSTYYADSVKGRFTISRDNAKNTVYLQMNSLKPEDTAVYYCNTYSGPYSISDYWGQGTQVTVSS” it is “high polyreactivity”; for “QVQLVESGGGLVQAGGSLRLSCAASGNTFDIYTMGWYRPAPGKERELVATISSGGRTNYADSVKGRFTISRDNAKNTVYLQMNSLNPEDTAVYYCAKNLRYVWWYDHFRPYGYWGQGTQVTVSS” it is “high polyreactivity”.

As for “QVQLVESGGGLVQAGGSLRLSCAASGNTFDVYVMGWYRQAPGKERELVAAINKGGGRTYYADSVKGRFTISRDNAKNTVYLQMNSLKPEDTAVYYCAAVSPKYESSYYYWGQGTQVTVSS”, the “polyreactivity (PSR sort gate)” value was “high polyreactivity”. Consider “QVQLVESGGGLVQAGGSLRLSCAASGNTFEHYAMGWYRQAPGKERELVAAISYSGGSTYYADSVKGRFTISRDNAKNTVYLQMNSLKPEDTAVYYCNARGRASATGRRGRPDPFGYWGQGTQVTVSS”, for which the “polyreactivity (PSR sort gate)” value is recorded as “high polyreactivity”. The result for “QVQLVESGGGLVQAGGSLRLSCAASGNTFFDNAMGWYRQAPGKERELVAAITFSGGSTYYADSVKGRFTISRDNAKNTVYLQMNSLKPEDTAVYYCAAVIRSRYSYYEYDYWGQGTQVTVSS” reads “high polyreactivity”; that for “QVQLVESGGGLVQAGGSLRLSCAASGNTFFLNAMGWYRQAPGKERELVAAITSSGGSTYYADSVKGRFTISRDNAKNTVYLQMNSLKPEDTAVYYCATDRSYPPRSLNRRGPYEYWGQGTQVTVSS”, “low polyreactivity”; that for “QVQLVESGGGLVQAGGSLRLSCAASGNTFFRYAMGWYRQAPGKERELVAAISKSGGSTYYADSVKGRFTISRDNAKNTVYLQMNSLKPEDTAVYYCAAYSPYGRYDYWGQGTQVTVSS”, “high polyreactivity”. Regarding “QVQLVESGGGLVQAGGSLRLSCAASGNTFGFNAMGWYTQAPGKERELVAAIRRGSGRTYYADSVKGRFTISRDNAKNTVYLQMNSLKPEDTAVYYCAAAPTTGKRPGYYYWGLGTQVTVSS”, the “polyreactivity (PSR sort gate)” value is on record as “high polyreactivity”. The result for “QVQLVESGGGLVQAGGSLRLSCAASGNTFGGYAMGWYRQAPGKERELVATISYADSVKGRFTISRDNAKNTVYLQMNSLKPEDTAVYYCNKQFGYPWEYYSYSYDYWGQGTQVTVSS” reads “low polyreactivity”; that for “QVQLVESGGGLVQAGGSLRLSCAASGNTFGLYAMGWYIQAPGKERELVAAIRRGGRTYADSVKGRFTISRDNAKNTVYGQMNSLKPEDTAVYYCAAYYVFLDNDYWGQGSQVTVSS”, “high polyreactivity”; that for “QVQLVESGGGLVQAGGSLRLSCAASGNTFGNYGMGWYRQAPGKEREFVAAITSRGTSTYYADSVKGRFTISRDNAKNTVYLQMNSLKPEDTAVYYCNARPRYKYPRYDYWVQGTQVTVSS”, “high polyreactivity”. Take “QVQLVESGGGLVQAGGSLRLSCAASGNTFGTYVMGWYRPAPGKERELVAAISQSGGSTDYADSVKGRFTISRDNAKKTVYLQMNSLKPEDTAVYYCAKVTWGTVWYRSPSEYDYWGQGTQVTVSS”: the “polyreactivity (PSR sort gate)” value was “low polyreactivity”. The result for “QVQLVESGGGLVQAGGSLRLSCAASGNTFHPYAMGWYRQAPGKERELVAAITKSGGSTYYADSVKGRFTISRDNAKNTVYLQMNSLKPEDTAFYYCAAESYIEYYLKYDYWGQGSQVTVSS” reads “low polyreactivity”.

Regarding “QVQLVESGGGLVQAGGSLRLSCAASGNTFIYYAMGWYRQAPGKERELVAAISRSGGSTYYADSVKGRFTISRDNAKNTVYLQMNSLKPEDTAVYYCAAEATKWIGVVTMDYWGQGTQVTVSS”, the “polyreactivity (PSR sort gate)” value is recorded as “high polyreactivity”. The result for “QVQLVESGGGLVQAGGSLRLSCAASGNTFKGYAMGSYRPAPGKERELVAAISWSGSSTYYADSVKGRFTISRDNAKNTVYLQMNSLKPEDTAVYYCAKAFKYTSPRRPYDYWGQGTQVTVSS” reads “high polyreactivity”. The entry for “QVQLVESGGGLVQAGGSLRLSCAASGNTFKYYVMGWYRQAPGKERELVAAITRGGSTYYADSVKGRFTISRDNAKNTVYLQMNSLKPEDTAVYYCATDVKIPNFDYWGQGTQVTVSS” is “high polyreactivity”; for “QVQLVESGGGLVQAGGSLRLSCAASGNTFLPNAMGWYRQAPGKERELVAAISNSGGSTYYADSVKGRFTISRDNAKNTVYLQMNSLKPEDTAVYYCAKRQWFPYYRGRDYWGQGTQVTVSS” it is “high polyreactivity”. Turning to “QVQLVESGGGLVQAGGSLRLSCAASGNTFNDYAMGWYRQAPGKERELVASISSGGSTYYADSVKGRFTISRDNAKNTVYLQMNSLKPEDTAVYYCAAEWHYIYAYDYWGQGTQVTVSS”, the “polyreactivity (PSR sort gate)” value is “low polyreactivity”.

Regarding “QVQLVESGGGLVQAGGSLRLSCAASGNTFNSYAMGWYRQAPGKEREFVAAISGSGSSTYYADSVKGRFTISRDNAKNTVYLQMNSLKPEDTAVYYCAARWRYYGSFDYWGQGTQVTVSS”, the “polyreactivity (PSR sort gate)” value is on record as “high polyreactivity”. The result for “QVQLVESGGGLVQAGGSLRLSCAASGNTFNVYAMGWYRQAPGKERELVAAITLSGGSTYYADSVKGRFTISRDNEKNTVYLQMNSLKPEDTAVYYCNAEEDGTDYDYWGQGTQVTVSS” reads “low polyreactivity”; that for “QVQLVESGGGLVQAGGSLRLSCAASGNTFPGYAMGWYRQAPGKEREFVATITSNDGTTYYADSVKGRFTISRDNAKNTVYLQMNSLKPEDTAVYYSAKRLSDSWPPNWGYNYWGQGTQVTVTS”, “low polyreactivity”; that for “QVQLVESGGGLVQAGGSLRLSCAASGNTFPVNAMGWYRQAPGKERDLVAAISRTGASTYYADSVKGRITISRDNAKNTVYLQMNSLKPEDTAVYYCAKYLKTPHNRRRVEALGYWGQGTQVTVSS”, “high polyreactivity”. The result for “QVQLVESGGGLVQAGGSLRLSCAASGNTFQYYAMGWYRQAPGKEREFVAAISRRGGSTYYADSVKGRFTISRDNAKNTVYLQMNSLKPEDTAVYYCNKVIFLSQSSYSFHYAYDYWGQGTQVTVSS” reads “high polyreactivity”; that for “QVQLVESGGGLVQAGGSLRLSCAASGNTFRFYTMGWYRQAPGKERELVAAINSSGRTNYADSVKGRFTISRDNAKNTVYLQMNSLKPEDTAVYYCAATVWVYRRSRDYWGQGTQVTVSS”, “low polyreactivity”. In the case of “QVQLVESGGGLVQAGGSLRLSCAASGNTFRIYAMGWYRQAPGKERELVAAISQSGGSTYYADSVKVRFTISRDNAKYTVYLQMNSLKPEDTAVYYCQLIRRGHDYWGQGTQVTVSS”, the “polyreactivity (PSR sort gate)” value is on record as “high polyreactivity”.

Take “QVQLVESGGGLVQAGGSLRLSCAASGNTFRRNVMGWYRQAPGKERELVAAINRGGSTTYADSVKGRFTISRDNAKNTVFLQMNSLKPEDTAVYYCNAEKRGQSYRFDYWGQGTQVTVSS”: the “polyreactivity (PSR sort gate)” value is given as “high polyreactivity”.

Regarding “QVQLVESGGGLVQAGGSLRLSCAASGNTFRRYAMGWYRQAPGKEREFVAAISSSGGRTYYADSVKGRFTISRDNAKNTVYLQMNSLKPEDTAVYYCNAVSYWVRGEMDYWGQGTQVTVSS”, the “polyreactivity (PSR sort gate)” value is reported as “high polyreactivity”. With “QVQLVESGGGLVQAGGSLRLSCAASGNTFRWYVMGWYRQAPGKERELVAAITSSGSTTYYADSVKGRFSISRDNAKNTVYLQMNSLKPEDTAVYYCAARNYGPYDYWGQGTQVTVSS”, the “polyreactivity (PSR sort gate)” value is “low polyreactivity”.

As to “QVQLVESGGGLVQAGGSLRLSCAASGNTFRYYAMGWYRQAPGKERELLAAINSRGGTTSYADSVKGRFTISRDNAKNTVYLQMNSLKPEDTAVYYCNKYIRYPFKRYGYWGQGTQVTVSS”, the “polyreactivity (PSR sort gate)” value is on record as “high polyreactivity”. Regarding “QVQLVESGGGLVQAGGSLRLSCAASGNTFSISAMGWYRLAPGKERELVAAISLSGGSTYYADSVKGRFTISRDNAKNTVYLQMNSLKPEDTAVYYCAADVFTARRRYDYWGQGTQLTVSS”, the “polyreactivity (PSR sort gate)” value was “low polyreactivity”.

On to “QVQLVESGGGLVQAGGSLRLSCAASGNTFSWYAMGWYRQAPGKERELVAVITSGGSTNYADSVKGRFTISRDNAKNTVYLQMNSLKPEDTAVYYCNKGLSRSYWWVDYWGQGTQVTVSS”, for which the “polyreactivity (PSR sort gate)” value was “low polyreactivity”. Turning to “QVQLVESGGGLVQAGGSLRLSCAASGNTFSYYAMGRYRQSPGKEREFVAAIRKSGASTYYADTVKGRFTISRDNAKNTVYLQINSLKPEDTALYYCAADGQVSYALGFDYWGQGTQVTVSS”, the “polyreactivity (PSR sort gate)” value is reported as “high polyreactivity”. The result for “QVQLVESGGGLVQAGGSLRLSCAASGNTFTRNAMGWYRQAPGKERELVAAITGRGGTYYADSVKGRFTISRDNAKNTVYLQMNSLKPEDTAVYYCAAASVTRRDLDYWGQGTQVTVSS” reads “high polyreactivity”.

For the origin of these results see the nanobody polyreactivity screen of Harvey et al. (2022).
